Experimental data as given in US12528864 (GlaxoSmithKline, dated 2026).
Positions count from the first letter of the chain named.

B1: 42Y073-1A01-103 (antibody, V domains shown)
VH: QVQLVQSGAEVKKPGASVKVSCKASGYTFTAYQMHWVRQAPGQGLEWMGIINPAGGWTSYAQKFQGRVTMTRDTSTSTVYMELSSLRSEDTAVYYCARETAYYTTKGNWFDPWGQGTLVTVSS
VL: DIQMTQSPSSLSASVGDRVTITCRASQSISSYLNWYQQKPGKAPKLLIYAASSLQSGVPSRFSGSGSGTDFTLTISSLQPEDFATYYCQQSLYPPRTFGGGTKVEIK
notes: Fully human antibody
B2: 42Y073-86F04-6 (antibody, V domains shown)
VH: QVQLVQSGAEVKKPGSSVKVSCKASGGTFSGHAISWVRQAPGQGLEWMGGIIPIFGRARYAQKFQGRVTITADESTSTAYMELSSLRSEDTAVYYCARLLGESGMDVWGQGTTVTVSS
VL: B1 VL with S91P, L92Y, Y93F, P94S, R96P
notes: Fully human antibody
B3: 42Y073-86F04-88 (antibody, V domains shown)
VH: B2 VH with G31S, H32S, R59N
VL: B1 VL with S91P, L92Y, Y93F, P94S, R96P
notes: Fully human antibody
B4: 42Y073-1A01-97 (antibody, V domains shown)
VH: B1 VH with A31R, Y32A, Q33A, W57Y
VL: B1 VL
notes: Fully human antibody
B5: 42Y073-1A01-85 (antibody, V domains shown)
VH: B1 VH with A31S, Q33P, A54S, W57F, S123A
VL: B1 VL
notes: Fully human antibody
B6: 42Y073-1A01-100 (antibody, V domains shown)
VH: B1 VH with A31T, Q33R, A54S, W57L, S59Q
VL: B1 VL
notes: Fully human antibody
B7: 42Y073-86F04-4 (antibody, V domains shown)
VH: B2 VH with S30E, G31S, H32E
VL: B1 VL with S91P, L92Y, Y93F, P94S, R96P
notes: Fully human antibody
B8: 42Y073-86F04-18 (antibody, V domains shown)
VH: B2 VH with G31S, H32R, F55M, R57T
VL: B1 VL with S91P, L92Y, Y93F, P94S, R96P
notes: Fully human antibody
B9: 42Y073-1A01-126 (antibody, V domains shown)
VH: B1 VH with A31R, Q33N, I50W, W57S, S123A
VL: B1 VL
notes: Fully human antibody
B10: 42Y073-1A01-191 (antibody, V domains shown)
VH: B1 VH with A31K, Q33R, A54Q, W57S, S123A
VL: B1 VL
notes: Fully human antibody
B11: 42Y073-86F04-33 (antibody, V domains shown)
VH: B2 VH with G31S, H32Y, I52L, R59N
VL: B1 VL with S91P, L92Y, Y93F, P94S, R96P
notes: Fully human antibody
B12: 42Y073-86F04-3 (antibody, V domains shown)
VH: B2 VH with G31Y, H32N, F55M, R57T
VL: B1 VL with S91P, L92Y, Y93F, P94S, R96P
notes: Fully human antibody
B13: 42Y073-86F04-5 (antibody, V domains shown)
VH: B2 VH with G31S, A58G, R59K
VL: B1 VL with S91P, L92Y, Y93F, P94S, R96P
notes: Fully human antibody
B14: 42Y073-86F08-1 (antibody, V domains shown)
VH: QVQLVQSGAEVKKPGSSVKVSCKASGGTFSSYAISWVRQAPGQGLEWMGGIIPIFGTASYAQKFQGRVTITADESTSTAYMELSSLRSEDTAVYYCARGAGYYGDKDPMDVWGQGTTVTVSS
VL: DIQLTQSPSSLSASVGDRVTITCRASQSISSYLNWYQQKPGKAPKLLIYAASSLQSGVPSRFSGSGSGTDFTLTISSLQPEDFATYYCQQVLHTITFGGGTKVEIK
B15: 42Y073-86F08-4 (antibody, V domains shown)
VH: B14 VH with S31E, S35H, G50N, S59G
VL: B14 VL
notes: Fully human antibody
B16: 42Y073-86F08-22 (antibody, V domains shown)
VH: B14 VH with S16A, G27Y, S30D, I34M, S35H, S59W
VL: B14 VL
notes: Fully human antibody
B17: 42Y073-86F08-8 (antibody, V domains shown)
VH: B14 VH with S30W, S31L, I54Q, F55L, S59N
VL: B14 VL
notes: Fully human antibody; also called 42Y073-88F08-8
B18: 42Y073-86F08-17 (antibody, V domains shown)
VH: B14 VH with S30R, S31E, I54V, S59N
VL: B14 VL
notes: Fully human antibody; also called 42Y073-88F08-17
B19: 42Y073-86F08-47 (antibody, V domains shown)
VH: B14 VH with S31Q, S35H, G50V, T57K, S59N
VL: B14 VL
notes: Fully human antibody
B20: 42Y073-86F08-3 (antibody, V domains shown)
VH: B14 VH with S30V, S31N, I54A, F55L, S59N
VL: B14 VL
notes: Fully human antibody
B21: 42Y073-86F08-16 (antibody)
heavy: not shown
light: DIQLTQSPSSLSASVGDRVTITCRASQSISSYLNWYQQKPGKAPKLLIYAASSLQSGVPSRFSGSGSGTDFTLTISSLQPEDFATYYCQQVLHTITFGGGTKVEIKRTVAAPSVFIFPPSDEQLKSGTASVVCLLNNFYPREAKVQWKVDNALQSGNSQESVTEQDSKDSTYSLSSTLTLSKADYEKHKVYACEVTHQGLSSPVTKSFNRGEC
notes: also called 42Y073-88F08-16
B22: 42Y073-2B04-46 (antibody, V domains shown)
VH: QVQLQQWGAGLLKPSETLSLTCAVYGGSFRRYYWSWIRQPPGKGLEWIGEIDGWGSTNYNPSLKSRVTISVDTSKNQFSLKLSSVTAADTAVYYCARGGSVDFWSGSDYYYYMDVWGKGATVTVSS
VL: EIVLTQSPATLSLSPGERATLSCRASQSVSSYLAWYQQKPGQAPRLLIYDASKRATGIPARFSGSGSGTDFTLTISSLEPEDFAVYYCQQLDNWPITFGGGTKVEIK
notes: Fully human antibody; also called 42Y073-2804-46

Experiments:
[1] = target: T1, human CD96v2 expressed on cells (CHO cells; transiently transfected HEK cells) (human, UniProt P40200-2 22-569); experiment: flow cytometry, inhibition of human CD155-Fc-AF647 binding to CHO cells expressing human CD96v2; competitor CD155-Fc
T1 construct: whole, on cells; the cell is named under assay; also called CHO-huCD96; hCD96v2
T1 sequence (looked up): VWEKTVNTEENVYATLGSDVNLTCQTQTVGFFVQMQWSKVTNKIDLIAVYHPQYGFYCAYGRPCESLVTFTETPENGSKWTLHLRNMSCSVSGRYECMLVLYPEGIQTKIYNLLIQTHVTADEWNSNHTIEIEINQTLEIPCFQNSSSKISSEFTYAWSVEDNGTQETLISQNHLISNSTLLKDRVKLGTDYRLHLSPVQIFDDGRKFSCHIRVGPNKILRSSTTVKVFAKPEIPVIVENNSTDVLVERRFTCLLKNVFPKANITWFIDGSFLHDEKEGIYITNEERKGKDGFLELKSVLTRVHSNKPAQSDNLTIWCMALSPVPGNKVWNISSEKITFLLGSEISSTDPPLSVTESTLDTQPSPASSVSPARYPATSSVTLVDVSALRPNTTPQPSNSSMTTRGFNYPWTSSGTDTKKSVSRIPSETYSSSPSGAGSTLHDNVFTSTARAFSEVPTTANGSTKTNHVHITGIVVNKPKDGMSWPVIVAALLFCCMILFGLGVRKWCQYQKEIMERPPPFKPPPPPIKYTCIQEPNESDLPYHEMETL

[2] = target: T1, human CD96v2 expressed on cells (CHO …); experiment: flow cytometry on CHO cells expressing human CD96v2
[3] = target: T2, cynomolgus monkey CD96v2 expressed on cells (CHO cells; transiently transfected HEK cells) (cynomolgus monkey, UniProt A0A2K5TWV6 22-569); experiment: flow cytometry on CHO cells expressing cynomolgus CD96v2
T2 construct: the cell is named under assay; also called CHO-cyCD96; Cyno CD96v2
T2 sequence: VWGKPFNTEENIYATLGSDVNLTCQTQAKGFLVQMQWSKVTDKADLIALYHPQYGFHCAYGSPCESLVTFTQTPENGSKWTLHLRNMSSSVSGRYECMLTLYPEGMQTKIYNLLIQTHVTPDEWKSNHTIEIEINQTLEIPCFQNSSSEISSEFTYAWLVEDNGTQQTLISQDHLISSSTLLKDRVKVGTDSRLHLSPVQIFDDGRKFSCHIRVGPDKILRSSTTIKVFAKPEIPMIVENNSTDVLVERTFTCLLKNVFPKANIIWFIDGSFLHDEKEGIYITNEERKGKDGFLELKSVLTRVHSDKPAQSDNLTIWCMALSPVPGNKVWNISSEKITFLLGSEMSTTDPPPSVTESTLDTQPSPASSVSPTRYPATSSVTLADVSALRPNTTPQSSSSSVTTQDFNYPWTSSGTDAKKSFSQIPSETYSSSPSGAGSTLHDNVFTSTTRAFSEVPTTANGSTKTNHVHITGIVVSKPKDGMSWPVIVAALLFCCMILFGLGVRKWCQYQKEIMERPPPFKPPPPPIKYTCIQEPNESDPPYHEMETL

Binder | IC50 [1] | EC50 [2] | EC50 [3]
B1 | 0.03 nM | 0.02 nM | 0.03 nM
B2 | 0.25 nM | 0.06 nM | 0.11 nM
B3 | 0.21 nM | 0.05 nM | 0.16 nM
B4 | 0.03 nM | 0.77 nM | 0.02 nM
B5 | 0.03 nM | 0.47 nM | 0.01 nM
B6 | 0.06 nM | 0.02 nM | 0.04 nM
B7 | 0.18 nM | 0.04 nM | 0.07 nM
B8 | 0.59 nM | 0.07 nM | 0.11 nM
B9 | 0.1 nM | 0.02 nM | 0.03 nM
B10 | 0.03 nM | 0.01 nM | 0.02 nM
B11 | 0.71 nM | 0.04 nM | 0.05 nM
B12 | 0.31 nM | 0.04 nM | 0.04 nM
B13 | 0.38 nM | 0.05 nM | 0.07 nM
B14 | 0.33 nM | 0.07 nM | –
B15 | 0.38 nM | 0.04 nM | 0.07 nM
B16 | 0.41 nM | 0.03 nM | 0.09 nM
B17 | 0.93 nM | 0.17 nM | 0.03 nM
B18 | 0.52 nM | 0.1 nM | 0.03 nM
B19 | 0.17 nM | 0.05 nM | 0.06 nM
B20 | 0.28 nM | 0.04 nM | –
B21 | 0.78 nM | 0.03 nM | 0.04 nM
B22 | 0.4 nM | 1.06 nM | 0.04 nM
